Reference: the supplement of paper PMC12764529
± gives the half width of the 95% confidence interval.

Legend:
[1] = folding stability dG unfold from trypsin proteolysis; higher = more stable
Outline: (§1)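 Mini-proteins designed to be under 80 residues and free of cysteine were carried in a PA-tagged cDNA display construct and digested with trypsin and with chymotrypsin. Each protease was applied at 11 threefold-diluted concentrations, alongside a no-protease condition, before sequencing. K50 came from Bayesian fitting of the sequencing counts, and unfolding free energy was obtained by comparing it with a sequence-predicted unfolded-state K50 and a shared folded-state K50, for each protease separately or for both together. Designs were retained only if their AlphaFold2 dimer inter-PAE exceeded 15.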

[2] = folding stability dG unfold from chymotrypsin proteolysis; higher = more stable
Outline: as §1

[3] = folding stability dG unfold (combined trypsin and chymotrypsin); higher = more stable
Outline: as §1

Sequence: SKPETVTFPFNIPLKDMPLEDIKEEAKEWLRNFGYKVEKPEITPEMLKLLKDMPPGQEIPITITIKVEPKSA [r9_1163_TrROS]
- folding stability dG unfold [1]: 0.301 ± 0.12 kcal/mol
- folding stability dG unfold [2]: 1.08 ± 0.18 kcal/mol
- folding stability dG unfold [3]: 0.828 ± 0.085 kcal/mol

Sequence: SKPIPVKITIETKTNPNGEPITTITIDKGDKTYSLPLGNAKILEIDPEKQYIIIYNPETGSILILKPSDLSA [r9_1186_TrMRF]
- folding stability dG unfold [1]: 2.54 ± 0.059 kcal/mol
- folding stability dG unfold [2]: 3.14 ± 0.06 kcal/mol
- folding stability dG unfold [3]: 2.95 ± 0.058 kcal/mol

Sequence: SKPNLEVKEVEIKMTAEEIKKLLKPNVTKIEKVNGKYYVTVKVNGVLVKIEIKYDKETNEVTVKIYVIKPSA [r9_604_TrROS_Hall]
- folding stability dG unfold [1]: 2.37 ± 0.072 kcal/mol
- folding stability dG unfold [2]: 3.115 ± 0.03 kcal/mol
- folding stability dG unfold [3]: 2.88 ± 0.11 kcal/mol

Sequence: SKTIYIPKNVPIDYILKVVKEAEKKGKPVKIVIETYNNPKVIEALKKAGYKVEIKEDKKKKITLIVVYPESA [r9_759_TrMRF]
- folding stability dG unfold [1]: 3.33 ± 0.2 kcal/mol
- folding stability dG unfold [2]: 4.35 ± 0.11 kcal/mol
- folding stability dG unfold [3]: 4.2 ± 0.39 kcal/mol

Sequence: SKTVEITLTNEDGSTVTITFNEETGKIVIKVPPNVSVEQIKALLRKLLPPGAEVTITRTPNGYYEIEVKPSA [r9_933_TrROS_Hall]
- folding stability dG unfold [1]: 3.68 ± 0.13 kcal/mol
- folding stability dG unfold [2]: 4.41 ± 0.13 kcal/mol
- folding stability dG unfold [3]: 4.14 ± 0.098 kcal/mol

Sequence: SKTVVIKIDNRVPVPKSDKYVPIKEEFFLKVINEIKKKGYKVIITGANPDNPLAKEVAKKAKELGFEVVGSA [r9_468_TrMRF]
- folding stability dG unfold [1]: 0.992 ± 0.014 kcal/mol
- folding stability dG unfold [2]: 0.805 ± 0.082 kcal/mol
- folding stability dG unfold [3]: 0.922 ± 0.065 kcal/mol

Sequence: SKTVVVEINGYLIVVEEKKLENGETYYTVKIVNKKTKKVIEVKAKSKEEAEKAVLEALRKLFPDEELKKLSA [r9_749_TrROS_Hall]
- folding stability dG unfold [1]: 3.05 ± 0.15 kcal/mol
- folding stability dG unfold [2]: 2.45 ± 0.075 kcal/mol
- folding stability dG unfold [3]: 2.51 ± 0.35 kcal/mol

Sequence: SKVKIVKVEYDKETNVVTVTIYDEKTKKKIEIRYTPGKVEIVVEIDGKKLVLKFKTKEEALEAAKKLLKKSA [r9_527_TrROS_Hall]
- folding stability dG unfold [1]: 2.72 ± 0.089 kcal/mol
- folding stability dG unfold [2]: 3.94 ± 0.079 kcal/mol
- folding stability dG unfold [3]: 3.61 ± 0.2 kcal/mol

Sequence: SKVKPGEKVEYVEITITVDVKSVEELEKKLRELLGVKEVKVTVTEENGKLTLTIVVKSKEEADKLKELLSSA [r9_764_TrROS_Hall]
- folding stability dG unfold [1]: 1.22 ± 0.031 kcal/mol
- folding stability dG unfold [2]: 1.73 ± 0.066 kcal/mol
- folding stability dG unfold [3]: 1.47 ± 0.16 kcal/mol

Sequence: SKVKVEVVEVKYNKETKKFTVKLKVYNEDGELIEEIELEFPESEEEVLKKAEELAKELAEKYGLKIEIKPSA [r9_31_TrROS_Hall]
- folding stability dG unfold [1]: 2.41 ± 0.12 kcal/mol
- folding stability dG unfold [2]: 3.89 ± 0.085 kcal/mol
- folding stability dG unfold [3]: 3.56 ± 0.12 kcal/mol

Sequence: SKVRELLREIARPHGMPITDVKVEPPPDGWHKVTFQIQFPMKDPNGQPMRRMTFPATITVRNGKITEITISA [r9_519_TrROS]
- folding stability dG unfold [1]: 1.54 ± 0.11 kcal/mol
- folding stability dG unfold [2]: 1.56 ± 0.12 kcal/mol
- folding stability dG unfold [3]: 1.72 ± 0.34 kcal/mol

Sequence: SKYRILIHTPNPGMPPEEIIDELEEPGFKDVEVVDSPSELKELPPNYDIVIMFHNGQFQISIFPPEELDKSA [r9_750_TrROS]
- folding stability dG unfold [1]: 0.316 ± 0.14 kcal/mol
- folding stability dG unfold [2]: 1.4 ± 0.31 kcal/mol
- folding stability dG unfold [3]: 0.937 ± 0.2 kcal/mol

Sequence: SLDKARDILREHGMEPTSIDVVEDGWVKVTWEYPGNKVEIFIPEDGNIMIEFRNPNNGQRVERTIPVDDVSA [r9_2_TrROS]
- folding stability dG unfold [1]: -0.489 ± 0.2 kcal/mol
- folding stability dG unfold [2]: 0.753 ± 0.14 kcal/mol
- folding stability dG unfold [3]: 0.472 ± 0.15 kcal/mol

Sequence: SLKPGETKTLTLLIRTKDPEKTAEELAEEARKEIEELLPPGVKIEVKVTSVEPLPETGEVDVTVEVTVTASA [r9_706_TrMRF]
- folding stability dG unfold [1]: 3.02 ± 0.19 kcal/mol
- folding stability dG unfold [2]: 3.01 ± 0.06 kcal/mol
- folding stability dG unfold [3]: 2.97 ± 0.13 kcal/mol

Sequence: SLSEEEAKDNPEEANEKMQPPPVPPIPLPVPIRNPDNKQEFPAPFEIRTLPNHLEFRFPGNGKPFPVPIDSA [r9_548_TrROS]
- folding stability dG unfold [1]: 2.53 ± 0.24 kcal/mol
- folding stability dG unfold [2]: 2.87 ± 0.11 kcal/mol
- folding stability dG unfold [3]: 2.63 ± 0.28 kcal/mol

Sequence: SLSEEELKKKLEELKKKLKPPKPKVKKVKVKIKNKETNEEIEEEVEIVETPDTVYIYNKKTGKLFKFKIKSA [r9_548_TrROS_Hall]
- folding stability dG unfold [1]: 0.935 ± 0.11 kcal/mol
- folding stability dG unfold [2]: 1.95 ± 0.24 kcal/mol
- folding stability dG unfold [3]: 1.73 ± 0.29 kcal/mol

Sequence: SLSPSTPISSEEEAKEAAEKLAEEVREELGEDLPIVVDIERKELEDGTIVVKFTFYVPETGEKLLEVEVGSA [r9_794_JUSTAS]
- folding stability dG unfold [1]: 1.2 ± 0.097 kcal/mol
- folding stability dG unfold [2]: 1.56 ± 0.049 kcal/mol
- folding stability dG unfold [3]: 1.27 ± 0.16 kcal/mol

Sequence: SMAKVTGYPDIFLVTIYKDGEEKTIPVNFEELVELLKKGVKKVEFTTDNPEFAEKFYKLVKSLGVPVNLKSA [r9_810_TrMRF]
- folding stability dG unfold [1]: 1.44 ± 0.016 kcal/mol
- folding stability dG unfold [2]: 2.7 ± 0.04 kcal/mol
- folding stability dG unfold [3]: 2.33 ± 0.044 kcal/mol

Sequence: SMDLRLEVVSVEIEPEGRTLRIRVRVRLTALDPDDPDLPVPVLEVEVEIPIPLPEPLPLPVPNDPRALAASA [r9_357_TrMRF]
- folding stability dG unfold [1]: 1.63 ± 0.11 kcal/mol
- folding stability dG unfold [2]: 2.75 ± 0.037 kcal/mol
- folding stability dG unfold [3]: 2.25 ± 0.21 kcal/mol

Sequence: SMDPGDPILITIKIPPVPVYRYKRDPDGNPKGYEPVPMPSQELVIIIPANDLEKLLDLLQPFGLDVEIIPSA [r9_167_TrROS]
- folding stability dG unfold [1]: 1.58 ± 0.071 kcal/mol
- folding stability dG unfold [2]: 2.44 ± 0.083 kcal/mol
- folding stability dG unfold [3]: 2.08 ± 0.13 kcal/mol

Sequence: SMEEVKEALRKAGIDVPVTKIETEKLPDGSYKVTLTVGDKKVLTVYVPPEPPEPPVFYRTPPNGSREPVLSA [r9_442_JUSTAS]
- folding stability dG unfold [1]: 0.291 ± 0.12 kcal/mol
- folding stability dG unfold [2]: 0.528 ± 0.27 kcal/mol
- folding stability dG unfold [3]: 0.504 ± 0.18 kcal/mol

Sequence: SMEITLLSTDPTPGGMTTALWETPNRKVTIFKPPSENYYIVTVEIPGTGKTKTLRFPKNVSPEEIVKKLGSA [r9_522_JUSTAS]
- folding stability dG unfold [1]: 1.88 ± 0.034 kcal/mol
- folding stability dG unfold [2]: 1.55 ± 0.091 kcal/mol
- folding stability dG unfold [3]: 1.78 ± 0.074 kcal/mol

Sequence: SMETLEIEITVKVEKDENGKIRKVSVEELKEELEKAGFKITEIEITEVTENTVKIKIKIEKPEEEEEEEESA [r9_225_TrROS_Hall]
- folding stability dG unfold [1]: 2.97 ± 0.36 kcal/mol
- folding stability dG unfold [2]: 3.26 ± 0.24 kcal/mol
- folding stability dG unfold [3]: 3.25 ± 0.55 kcal/mol

Sequence: SMEVKIELTDEEIEAALEAGYEVEIEVRVVEVEYDEETDEVTVKVEVTITIRPVPPPPEVVVDEETGEILSA [r9_396_TrROS_Hall]
- folding stability dG unfold [1]: 2.1 ± 0.23 kcal/mol
- folding stability dG unfold [2]: 0.342 ± 0.057 kcal/mol
- folding stability dG unfold [3]: 1.27 ± 0.34 kcal/mol

Sequence: SMFTLVLPDGSVIPVIKGDSTTTVYDPRTGRTLPIPSSTVEENSIEEIVERILAELEKLGVPAQPVEILESA [r9_1211_JUSTAS]
- folding stability dG unfold [1]: 1.99 ± 0.035 kcal/mol
- folding stability dG unfold [2]: 1.72 ± 0.032 kcal/mol
- folding stability dG unfold [3]: 1.84 ± 0.034 kcal/mol

Sequence: SMGVKIEIDKEIIEKAIEEGKTFEADAKIKIEAYNPKTGKKIAEAEKIVKIRLEIEPPKAEPDPETGKPESA [r9_396_TrMRF]
- folding stability dG unfold [1]: 0.661 ± 0.071 kcal/mol
- folding stability dG unfold [2]: 0.36 ± 0.066 kcal/mol
- folding stability dG unfold [3]: 0.633 ± 0.13 kcal/mol

Sequence: SMIDIEISTDPNNPNVITVTAKYPDPEKAKEYLEKKLKEEYDVISISYEYEPENPIITFTFTYASPEKPQSA [r9_1120_JUSTAS]
- folding stability dG unfold [1]: 2.37 ± 0.078 kcal/mol
- folding stability dG unfold [2]: 3.11 ± 0.052 kcal/mol
- folding stability dG unfold [3]: 2.79 ± 0.15 kcal/mol

Sequence: SMIIKPGMSLEEVLNKIKELLKKGEKYKITVINKETGKVYEFEIDVKTKKIKVKEVTLENGEVIIKIEKVSA [r9_1059_TrROS_Hall]
- folding stability dG unfold [1]: 1.93 ± 0.046 kcal/mol
- folding stability dG unfold [2]: 3.54 ± 0.07 kcal/mol
- folding stability dG unfold [3]: 3.05 ± 0.12 kcal/mol

Sequence: SMIIPPELGFEEAVELIKELLEPEKTYLVVTGDPETGTLSVARLDPETGEVEVEPLPTTEGESFVAVFEISA [r9_1059_TrMRF]
- folding stability dG unfold [1]: 1.09 ± 0.044 kcal/mol
- folding stability dG unfold [2]: 1.3 ± 0.059 kcal/mol
- folding stability dG unfold [3]: 1.27 ± 0.07 kcal/mol

Sequence: SMIKIKLKNGMEITIEKTPEKVKIKLKATGKEIELPLEELENMTEEELLEKLRKLAEELGMEVEEVEIEPSA [r9_1211_TrROS_Hall]
- folding stability dG unfold [1]: 3.18 ± 0.14 kcal/mol
- folding stability dG unfold [2]: 3.43 ± 0.083 kcal/mol
- folding stability dG unfold [3]: 3.38 ± 0.11 kcal/mol

Sequence: SMIKIKVVEKKDGKYKIKIENKKTGKTFEFEFDTKEEAEEAEKNPGKTIYLSEEALKKLKKENITKVEKVSA [r9_390_TrROS_Hall]
- folding stability dG unfold [1]: 0.442 ± 0.065 kcal/mol
- folding stability dG unfold [2]: 1.24 ± 0.087 kcal/mol
- folding stability dG unfold [3]: 1.11 ± 0.15 kcal/mol

Sequence: SMIKPGDTVTIVLKVKPEDLEKIREAVEELLRELFPDVEVESVEVNPEEENYVVITVRVDGKEITLVIERSA [r9_1079_TrROS_Hall]
- folding stability dG unfold [1]: 2.78 ± 0.048 kcal/mol
- folding stability dG unfold [2]: 2.262 ± 0.021 kcal/mol
- folding stability dG unfold [3]: 2.5 ± 0.041 kcal/mol

Sequence: SMITIEINVGNKKYTVEIVPEKGIIKITDPNGTPIGEGEIKPDSIDITLTKPNTDETYKFTFPIPPESLPSA [r9_963_JUSTAS]
- folding stability dG unfold [1]: 2.29 ± 0.1 kcal/mol
- folding stability dG unfold [2]: 3.04 ± 0.12 kcal/mol
- folding stability dG unfold [3]: 2.69 ± 0.18 kcal/mol

Sequence: SMIVKSEPVKDPNSDLTTTPVTITLPVREYDPSLGVTRERLVTINGTVITTLLEKHPDGSVISTVDVLPASA [r9_1058_JUSTAS]
- folding stability dG unfold [1]: -0.177 ± 0.026 kcal/mol
- folding stability dG unfold [2]: 0.69 ± 0.039 kcal/mol
- folding stability dG unfold [3]: 0.427 ± 0.049 kcal/mol

Sequence: SMIVTEEVSYDPSTNTRTITKTVYEKDENGNLVPVETEVVVEPVEEPPPYVPVIKVPPSNKTPEDRVKVLSA [r9_888_JUSTAS]
- folding stability dG unfold [1]: -0.035 ± 0.23 kcal/mol
- folding stability dG unfold [2]: 1.02 ± 0.27 kcal/mol
- folding stability dG unfold [3]: 0.781 ± 0.35 kcal/mol

Sequence: SMKDATSTSIGSRTYTYPNTDPSVSPEELKEKVIEEIKKEPELKAVEITVEVDPSTGTVTITINLTKLVKSA [r9_1001_JUSTAS]
- folding stability dG unfold [1]: 1.14 ± 0.021 kcal/mol
- folding stability dG unfold [2]: 1.76 ± 0.054 kcal/mol
- folding stability dG unfold [3]: 1.5 ± 0.077 kcal/mol
